Data on 1 substance can be found in patent US20140056902A1.

The target of experiment [1] is human BMP9 recombinant protein prepared according to Example 12 of WO 2010/126169 (N-terminal His-tagged hBMP9 complex, pLN1V5_human BMP9 vector) (human) (UniProt Q9UK05). Put plainly: SPR (BIAcore 2000), antibody captured on anti-mouse IgG, human BMP9 recombinant protein as analyte, single cycle kinetics.
The target of experiment [2] is human mature dimer BMP9 recombinant protein (manufactured by R&D systems, Cat#3209-BP) (human) (UniProt Q9UK05). Put plainly: ELISA, immobilized human BMP9 (100 ng/mL coat), biotin-labeled antibody titrated, absorbance 450-570 nm; unit ng/mL from the legend. (In general: In an ELISA, binding on a coated surface is turned into a signal by an enzyme label.)
human mature dimer BMP9 recombinant protein (manufactured by R&D systems, Cat#3209-BP) (human), sequence (Q9UK05 320-429): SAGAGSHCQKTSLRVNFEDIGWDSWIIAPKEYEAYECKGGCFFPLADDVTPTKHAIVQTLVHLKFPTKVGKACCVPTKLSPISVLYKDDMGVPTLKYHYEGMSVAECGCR

human BMP9 recombinant protein prepared according to Example 12 of WO 2010/126169 (N-terminal His-tagged hBMP9 complex, pLN1V5_human BMP9 vector) (human), sequence (Q9UK05 320-429, chain 1 of 2): as the sequence (Q9UK05 320-429) above
human BMP9 recombinant protein prepared according to Example 12 of WO 2010/126169 (N-terminal His-tagged hBMP9 complex, pLN1V5_human BMP9 vector) (human), sequence (Q9UK05 23-319, chain 2 of 2): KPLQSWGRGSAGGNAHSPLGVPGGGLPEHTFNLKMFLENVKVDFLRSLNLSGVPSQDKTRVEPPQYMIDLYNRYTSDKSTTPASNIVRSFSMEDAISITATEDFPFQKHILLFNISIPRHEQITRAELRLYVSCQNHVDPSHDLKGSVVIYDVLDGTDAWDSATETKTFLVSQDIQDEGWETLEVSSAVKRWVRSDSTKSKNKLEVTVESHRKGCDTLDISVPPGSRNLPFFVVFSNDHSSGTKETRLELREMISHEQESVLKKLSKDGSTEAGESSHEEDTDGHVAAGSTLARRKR

The Kd is the equilibrium constant for the complex coming apart. A word on the EC50 (read off the curve): it is the midpoint of the concentration-response curve. In the case of “anti-human BMP9 mouse monoclonal antibody (manufactured by R&D systems, clone No. 360107)”, in experiment [1], the Kd was 0.616 nM and the Relative binding affinity (to R&D antibody) stood at 1 fold. Moreover, the EC50 (read off the curve) in experiment [2] stood at 10 ng/mL.
